Data taken from patent US7932362B2, “Antibodies to NRIF3 proteins” (New York University, priority 1999, dated 2011).

T1: cTRα (Gallus gallus, UniProt P04625)
T1 sequence (P04625 1-408): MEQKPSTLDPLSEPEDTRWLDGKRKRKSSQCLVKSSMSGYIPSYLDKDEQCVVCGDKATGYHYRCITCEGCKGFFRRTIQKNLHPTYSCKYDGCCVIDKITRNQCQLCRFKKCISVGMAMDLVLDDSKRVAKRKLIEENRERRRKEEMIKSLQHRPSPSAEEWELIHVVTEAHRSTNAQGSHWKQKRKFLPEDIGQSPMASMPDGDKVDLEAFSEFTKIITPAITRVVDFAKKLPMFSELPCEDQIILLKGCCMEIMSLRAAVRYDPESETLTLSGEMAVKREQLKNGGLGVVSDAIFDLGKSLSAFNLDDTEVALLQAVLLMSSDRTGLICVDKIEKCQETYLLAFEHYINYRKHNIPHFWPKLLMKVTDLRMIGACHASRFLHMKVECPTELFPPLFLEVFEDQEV

B1: EnL: β3-endonexin long form, 170 amino acids, alternatively spliced product of the same gene as NRIF3 (protein)
chain: MPVKRSLKLDGLLEENSFDPSKITRKKSVITYSPTTGTCQMSLFASPTSSEEQKHRNGLSNEKRKKLNHPSLTESKESTTKDNDEFMMLLSKVEKLSEEIMEIMQNLSSIQALEGSRELENLIGISCASHFLKREMQKTKELMTKVNKQKLFEKSTGLPHKGQPQMSPQL
B2: EnS: β3-endonexin short form, 111 amino acids, identical to the first 111 residues of NRIF3 (protein)
chain: MPVKRSLKLDGLLEENSFDPSKITRKKSVITYSPTTGTCQMSLFASPTSSEEQKHRNGLSNEKRKKLNHPSLTESKESTTKDNDEFMMLLSKVEKLSEEIMEIMQNLSSIQ

What was measured:
endogenous RAR(s) = assay: Transfection study, CAT reporter in HeLa cells, endogenous RAR(s); assay type: cell-based, human; details: 1 μM, HeLa cells without receptor expression vector, FIG. 6A
From the text: (§1) Transfection studies. Most reporters used in this study have been described previously, including IR-ΔMTV-CAT, DR4-ΔMTV-CAT, GH-TRE-tk-CAT, IR+3 (ERE)-ΔMTV-CAT (5, 25, 78). A DR1-ΔMTV-CAT reporter responsive to RXR was obtained from Ron Evans. A GRE/PRE-tk-CAT reporter was obtained from Gunther Schutz. The (IR)2-TATA-CAT was constructed in our laboratory by cloning two copies of the IR sequence (AGGTCA TGACCT) upstream of a TATA element derived from the tk promoter. A hVDR expression vector and the VDRE-ΔMTV-CAT containing the VDRE from the osteocalcin promoter were obtained from J. Wesley Pike. Vectors expressing cTRα, hRARα, hRXRα, rGR, hPR, and hER have been described previously (17, 25, 26, 50, 53, 81). The NRIF3 expression vector was constructed by cloning full length NRIF3 into a pExpress vector (25). Appropriate plasmids were transfected into HeLa cells by calcium phosphate co-precipitation using 25-100 ng of the receptors, 250-500 ng of the CAT reporters, and 750 ng of the NRIF3 or control pExpress vector. After transfection, cells were incubated at 37° C. (with or without cognate ligands) for 42 hours before being harvested. […] Relative CAT activity was determined as the percent acetylation of substrate per 30 μg of cell protein in a 15 hour incubation at 37° C. The results were calculated from duplicate or quadruplicate samples and the variation among samples was less than 10%.

cTRα = molecular target: T1, cTRα; assay: Transfection study, CAT reporter in HeLa cells, TR-mediated transactivation; assay type: cell-based, chicken; details: IR-ΔMTV-CAT reporter, 1 μM T3, FIG. 5A
From the text: as §1

B42-RAR LBD = assay: Yeast two-hybrid assay, LexA-NCD bait with prey B42-RAR LBD; assay type: cell-based, human; details: cognate ligand, FIG. 11
B42-RAR LBD, sequence (P10276 183-417 limits assumed): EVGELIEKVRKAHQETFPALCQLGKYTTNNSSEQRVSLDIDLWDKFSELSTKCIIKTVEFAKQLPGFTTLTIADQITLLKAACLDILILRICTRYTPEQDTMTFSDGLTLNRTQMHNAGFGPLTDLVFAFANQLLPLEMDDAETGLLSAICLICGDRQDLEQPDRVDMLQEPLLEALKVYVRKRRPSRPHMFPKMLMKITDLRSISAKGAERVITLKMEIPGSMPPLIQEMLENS
Experimental: The following receptor baits were used: LexA-cTRα LBD, LexA-hTRβ LBD, LexA-hRARα LBD, LexA-hRXRα LBD, and LexA-hGR LBD. The NRIF3 C-terminal domain (NCD) was fused in frame with the LexA DBD and examined for interaction with receptor LBDs using the following preys: B42-cTRα LBD, B42-hRARα LBD, and B42-hRXRα LBD expressed from pJG4-5. Yeast cells harboring appropriate plasmids were grown in selective media with Gal/Raf in the presence or absence of cognate ligand (1 μM T3 for TR, all trans or 9-cis RA for RAR, 9-cis RA for RXR, and 10 μM deoxycorticosterone for GR) overnight before β-galactosidase activity was assayed using o-Nitrophenyl β-D-Galactopyranoside as the substrate. β-galactosidase units are expressed as (O.D. 420 nm×1000)/(minutes of incubation×O.D. 600 nm of yeast suspension).
To construct the bait plasmid expressing LexA-NCD, a derivative of pEG202 (which contains a new polylinker) plasmid was digested with NcoI and XhoI and ligated to synthetic oligonucleotides that encode the last 16 amino acids of NRIF3 (residues 162-177). Similarly, mutant NCD was generated by using oligonucleotides that contain the designed mutations in the ligation reaction. All constructs were confirmed by sequence analysis. […]

LexA-TR = LexA-TR (Gallus gallus, UniProt P04625); details: yeast two-hybrid, 1 μM T3, FIG. 8B
LexA-RXR = LexA-RXR (Homo sapiens, UniProt P19793); details: yeast two-hybrid, 1 μM 9-cis RA, FIG. 8B
LexA-RXR, sequence (P19793 227-462): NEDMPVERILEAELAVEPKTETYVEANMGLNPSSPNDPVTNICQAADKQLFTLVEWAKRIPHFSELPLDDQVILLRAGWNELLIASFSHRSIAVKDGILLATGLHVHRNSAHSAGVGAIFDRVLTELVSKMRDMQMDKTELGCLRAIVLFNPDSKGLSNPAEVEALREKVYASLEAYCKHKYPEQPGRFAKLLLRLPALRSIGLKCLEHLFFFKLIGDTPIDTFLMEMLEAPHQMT

[1] = system: receptor-mediated transcription; assay: Transfection studies with endonexins (data not shown); assay type: cell-based
From the text: as §1

Molecule | interaction with liganded TR (LexA-TR) | interaction with liganded RXR (LexA-RXR) | effect on receptor-mediated transcription [1] | also measured
C/C(=C\c1ccc(C(=O)O)cc1)c1ccc2c(c1)C(C)(C)CCC2(C)C [TTNPB] |  |  |  | activation of the IR-ΔMTV-CAT reporter by ligand (endogenous RAR(s)): activates
CBP: reported co-activator for nuclear receptors, used as a control |  |  |  | enhancement of TR-mediated activation of the CAT reporter (cTRα): around 3 fold
NCD: C-terminal domain of NRIF3, amino acids 162-177; docked as 17-residue peptide KASRHLDSYEFLKAILN (SEQ ID NO:7) (C-terminal peptide of NRIF3) |  |  |  | interaction with the LBD of RAR (B42-RAR LBD): interact efficiently
B1 | completely abolished | completely abolished | little effect | 
B2 | completely abolished | completely abolished | little effect | 
